Data set [1] deals with the molecule itself. Kind of data set: crystal structure; NcdT436S at 4.5 mg/ml incubated with 4 mM MgCl2 and 4 mM ATP, hanging drops at room temperature, 11.5% PEG 8K, 25 mM sodium-phosphate pH 6.26, 0.5 M NaCl; molecular replacement with PDB 1N6M; two chains (A, B) joined by the coiled-coil stalk.
The target in data set [2] is microtubules (polymerized tubulin).

B1: NcdT436S, nonfusion protein for crystallization (MGSM-H293-K700) (domain or fragment, Drosophila)
chain: MGSMHAALSTEVVHLRQRTEELLRCNEQQAAELETCKEQLFQSNMERKELHNTVMDLRGNIRVFCRIRPPLESEENRMCCTWTYHDESTVELQSIDAQAKSKMGQQIFSFDQVFHPLSSQSDIFEMVSPLIQSALDGYNICIFAYGQSGSGKTYTMDGVPESVGVIPRTVDLLFDSIRGYRNLGWEYEIKATFLEIYNEVLYDLLSNEQKDMEIRMAKNNKNDIYVSNITEETVLDPNHLRHLMHTAKMNRATASTAGNERSSRSHAVTKLELIGRHAEKQEISVGSINLVDLAGSESPKTSTRMTETKNINRSLSELTNVILALLQKQDHIPYRNSKLTHLLMPSLGGNSKTLMFINVSPFQDCFQESVKSLRFAASVNSCKMTKAKRNRYLNNSVANSSTQSNNSGSFDK
notes: N-terminal leader of the construct MGSM-H293-K700; kinesin-14 Ncd of Drosophila, residues H293-K700 (part of the coiled-coil stalk, neck, motor domain and C-terminus), with T436S in the P-loop; The printed mass of 93,692 Da fits two chains (dimer); In the crystal, chain A is visible from M292 to K671 and chain B from G290 to K674; also called kinesin-14 Ncd T436S; source: E. coli BL21(DE3)pLysS …
With B1, in data set [1], the binding result is reported as “binds”.

B2: wild-type GST/Ncd (GST/MC1) (domain or fragment)
chain: KTKYEKQTEDMGELESMPQQLEETQNKLIETESSLKNTQSDNECLQRQVKQHTAKIETITSTLGRTKEELSELQAIHEKVKTEHAALSTEVVHLRQRTEELLRCNEQQAAELETCKEQLFQSNMERKELHNTVMDLRGNIRVFCRIRPPLESEENRMCCTWTYHDESTVELQSIDAQAKSKMGQQIFSFDQVFHPLSSQSDIFEMVSPLIQSALDGYNICIFAYGQTGSGKTYTMDGVPESVGVIPRTVDLLFDSIRGYRNLGWEYEIKATFLEIYNEVLYDLLSNEQKDMEIRMAKNNKNDIYVSNITEETVLDPNHLRHLMHTAKMNRATASTAGNERSSRSHAVTKLELIGRHAEKQEISVGSINLVDLAGSESPKTSTRMTETKNINRSLSELTNVILALLQKQDHIPYRNSKLTHLLMPSLGGNSKTLMFINVSPFQDCFQESVKSLRFAASVNSCKMTKAKRNRYLNNSVANSSTQSNNSGSFDK
B2 returned a K (m,MTs) of the microtubule-stimulated steady-state ATPase (0.5 μM motor, 1 mM MgATP, 0-2.5 μM microtubules) in data set [2] of 1.6 µM.

B3: GST/NcdT436S (GST-…-K210-K700) (domain or fragment)
chain: SDLVPRGSPVKTKYEKQTEDMGELESMPQQLEETQNKLIETESSLKNTQSDNECLQRQVKQHTAKIETITSTLGRTKEELSELQAIHEKVKTEHAALSTEVVHLRQRTEELLRCNEQQAAELETCKEQLFQSNMERKELHNTVMDLRGNIRVFCRIRPPLESEENRMCCTWTYHDESTVELQSIDAQAKSKMGQQIFSFDQVFHPLSSQSDIFEMVSPLIQSALDGYNICIFAYGQSGSGKTYTMDGVPESVGVIPRTVDLLFDSIRGYRNLGWEYEIKATFLEIYNEVLYDLLSNEQKDMEIRMAKNNKNDIYVSNITEETVLDPNHLRHLMHTAKMNRATASTAGNERSSRSHAVTKLELIGRHAEKQEISVGSINLVDLAGSESPKTSTRMTETKNINRSLSELTNVILALLQKQDHIPYRNSKLTHLLMPSLGGNSKTLMFINVSPFQDCFQESVKSLRFAASVNSCKMTKAKRNRYLNNSVANSSTQSNNSGSFDK
In data set [2], B3 yielded a K (m,MTs) of the microtubule-stimulated steady-state ATPase (0.5 μM motor, 1 mM MgATP, 0-2.5 μM microtubules) of 1.3 µM.

The values above are taken from PMC2906495, “A kinesin motor in a force-producing conformation” (BMC Structural Biology, 2010).
